This passage reports Kd and KD with 200 nM eIF3 results from paper PMC11063902.

Like-named read-outs stand apart in the source and are kept apart here.

For one series, the system named is eIF4G721-1104 (human). Description: fluorescence anisotropy. To be noted: text gives 4.60 ± 0.47 uM; uncapped; 20 mM Tris acetate pH 7.5, 70 mM KCl, 2 mM free Mg2+ (Mg acetate), 0.1 mM spermidine, 1 mM DTT, 10% glycerol, 0.1 mg/ml …; 20 nM RNA; 30 °C for 5 min. On the technique in general: Polarisation of emitted light reports the rotation of a fluorescent probe.

For a further series, the system named is eIF4G682-1104 (human). Description: fluorescence anisotropy. To be noted: uncapped; 20 mM Tris acetate pH 7.5, 70 mM KCl, 2 mM free Mg2+ (Mg acetate), 0.1 mM spermidine, 1 mM DTT, 10% glycerol, 0.1 mg/ml BSA; 20 nM RNA; 30 °C for 5 min.
For series [1], the target named is eIF4G_(721-1104)-Fl (S1041C) (human) (UniProt Q04637). Description: fluorescence polarisation; eIF4G_(721-1104)-Fl (fluorescein at S1041C) titrated with eIF3 or eIF3-PR∗; carried out as described previously (ref. 7).
Series [2] has the same target. Described as above. This is another data set of the same source.
Series [3] addresses eIF4A•eIF4G_(682-1104)-Fl (UniProt Q04637). The series can be described thus: fluorescence polarisation; 20 nM eIF4G-Fl with 3 uM eIF4A, 40S subunit titrated; Binding Buffer (20 mM Tris acetate pH 7.5, 70 mM KCl, 2 mM free Mg2+, 0.1 mM spermidine, 1 mM DTT, 10% glycerol, 0.1 mg/ml BSA) with 0.5 mM ATP/MgCl2; 10 min ice, 5 min 30 °C, 10 min room temperature.
Series [4] concerns the target eIF4A•eIF4G_(711-1104)-Fl (UniProt Q04637). The description is as above.
The target of series [5] is eIF4A•eIF4G_(682-1104)-Fl (UniProt Q04637). Description: fluorescence polarisation; as a3 with 200 nM eIF3 added (subsaturating, ~50% of eIF4G-Fl bound); 20 nM eIF4G-Fl, 3 uM eIF4A, 40S subunit titrated; 0.5 mM ATP/MgCl2.
In series [6] the target is eIF4A•eIF4G_(711-1104)-Fl (UniProt Q04637). The series is described as above.

Usually Kd stands for the equilibrium constant for the complex coming apart. CAA-42-FL (42-mer RNA-Fl): the Kd in the series with eIF4G721-1104 (human) is 4600 nM; in the series on eIF4G682-1104 (human) it was 463 nM.

For the substance “eIF3 (intact multi-subunit complex) (from UniProt O15371 1-548; Q99613 1-913; O75822 1-258)”, the values for the Kd in series [1] and in series [2] were 124 nM and 81 nM, respectively.

As for 40S ribosomal subunit (complex), the Kd came out at 129 nM in series [3] and 563 nM in series [4]. Besides, the figures for the KD with 200 nM eIF3 in series [5] and in series [6] were 76 nM and 248 nM, respectively.

On to “eIF3-PR∗ (eIF3 cleaved by HIV-1 PR and purified by size exclusion chromatography) (from UniProt O15371 1-114; Q99613 1-913) (complex)”, for which the Kd amounted to 75 nM in series [1] and 127 nM in series [2].
